# Results as given in patent US20180319875A1 (ANN AND ROBERT H LURIE CHILDREN S HOSPITAL OF CHICAGO, published 2018).
# B1: Recombinant human Nodal protein (rhNodal, E. coli derived His238-Leu347 with an N-terminal Met) (ligand)
# chain: MHHLPDRSQLCRKVKFQVDFNLIGWGSWIIYPKQYNAYRCEGECPNPVGEEFHPTNHAYIQSLLKRYQPHRVPSTCCAPVKTKPLSMLYVDNGRVLLDHHKDMIVEECGCL
# notes: range 238-347; also called full length Nodal; rNodal
# Legend:
# [1] = target: T1, Recombinant human Cripto-1 (rhCripto-1-1) (human, UniProt P13385 31-172, limits assumed); assay: SPR, average of two formats (Nodal to Cripto and Cripto to Nodal)
# T1 construct: Bought protein
# T1 sequence (looked up): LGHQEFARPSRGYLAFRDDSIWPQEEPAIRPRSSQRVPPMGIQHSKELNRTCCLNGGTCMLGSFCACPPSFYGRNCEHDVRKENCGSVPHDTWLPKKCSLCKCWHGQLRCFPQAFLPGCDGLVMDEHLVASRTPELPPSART
# [2] = target: T1, Recombinant human Cripto-1 …; assay: SPR; the curves are labelled hrCripto 4nM, 8nM, 16nM and 32nM, so Cripto-1 is the injected molecule (the legend paragraph 37 words panel A as Nodal to Cripto)
# [3] = target: T1, Recombinant human Cripto-1 …; assay: SPR; the curves are labelled Nodal 10nM, 25nM, 50nM and 100nM, so Nodal is the injected molecule (the legend paragraph 37 words panel B as Cripto to Nodal)
binder,measurement,setting,value
B1,Kd,[1],~4 nM
same,Kd,[2],3.7 nM
same,Kd,[3],5.8 nM
